This is an account of results in patent US20040028607.

Data set [1] concerns the target monoacetylated histone H3 peptide …(AcK)APRKQL, acetylated on lysine-14.
In data set [2] the target is PCAF-acetylated calf thymus core histones.
The target of data set [3] is T1, 9-amino acid synthetic alpha-tubulin peptide MPSD(AcK)TIGG, acetylated on lysine-40.
T1 chain: MPSDXTIGG

B1: recombinant yeast Hst2p (protein)
chain: MSVSTASTEMSVRKIAAHMKSNPNAKVIFMVGAGISTSCGIPDFRSPGTGLYHNLARLKLPYPEAVFDVDFFQSDPLPFYTLAKELYPGNFRPSKFHYLLKLFQDKDVLKRVYTQNIDTLERQAGVKDDLIIEAHGSFAHCHCIGCGKVYPPQVFKSKLAEHPIKDFVKCDVCGELVKPAIVFFGEDLPDSFSETWLNDSEWLREKITTSGKHPQQPLVIVVGTSLAVYPFASLPEEIPRKVKRVLCNLETVGDFKANKRPTDLIVHQYSDEFAEQLVEELGWQEDFEKILTAQGGMGDNSKEQLLEIVHDLENLSLDQSEHESADKKDKKLQRLNGHDSDEDGASNSSSSQKAAKE
Take B1: in data set [1], the “fold preference for H3 peptide relative to SIRT2 (V/K and Km)” value was “˜200-fold stronger preference for H3 peptide relative to SIRT2”; the “kcat (printed 'km values'), deacetylation of acetylated H3 peptide” value is listed as “The km values (˜0.2 s^-1) were similar between the two enzymes”. In addition, in data set [2], the “apparent V/K for deacetylation of core histones, fold over SIRT2” value is “Hst2p exhibited a 7-fold higher V/K value than SIRT2”. In data set [3], the “V/K, deacetylation of tubulin peptide, HPLC” value was 14.9 M⁻¹ s⁻¹ and the “kcat (printed 'kea'), deacetylation of tubulin peptide, HPLC” value came out at 0.00254 ± 0.0003 s⁻¹.

B2: recombinant human SIRT2 (6xHis-tagged, with factor Xa cleavage site, purified from E. coli) (protein)
chain: MAEPDPSHPLETQAGKVQEAQDSDSDSEGGAAGGEADMDFLRNLFSQTLSLGSQKERLLDELTLEGVARYMQSERCRRVICLVGAGISTSAGIPDFRSPSTGLYDNLEKYHLPYPEAIFEISYFKKHPEPFFALAKELYPGQFKPTICHYFMRLLKDKGLLLRCYTQNIDTLERIAGLEQEDLVEAHGTFYTSHCVSASCRHEYPLSWMKEKIFSEVTPKCEDCQSLVKPDIVFFGESLPARFFSCMQSDFLKVDLLLVMGTSLQVQPFASLISKAPLSTPRLLINKEKAGQSDPFLGMIMGLGGGMDFDSKKAYRDVAWLGECDQGCLALAELLGWKKELEDLVRREHASIDAQSGAGVPNPSTSASPKKSPPPAKDEARTTEREKPQ
Regarding B2, the “kcat (printed 'km values'), deacetylation of acetylated H3 peptide” value in data set [1] was “The km values (˜0.2 s^-1) were similar between the two enzymes”. For the same protein, in data set [3], the “V/K, deacetylation of tubulin peptide, HPLC” value was found to be 894 ± 100 M⁻¹ s⁻¹; the “fold preference for tubulin peptide relative to Hst2p (kcat and V/K)” value was “This difference was 60-fold”; the “kcat (printed 'kea'), deacetylation of tubulin peptide, HPLC” value was determined as 0.144 ± 0.005 s⁻¹.
